The target in the test is T1, carboxyterminal peptide of PD-L1 (SEQ ID NO: 1, RLRKGRMMDVKKCGIQDTNSKKQSDTHLEET) (human).
T1 construct: The immunogen was the KLH-coupled peptide; also called immunogen
T1 peptide: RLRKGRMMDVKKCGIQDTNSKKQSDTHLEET
Put plainly: ELISA, wells coated with the peptide immunogen.

B1: inventive antibody clone MKP1A07310 (rabbit monoclonal recombinant anti-PD-L1 antibody) (antibody, V domains shown)
VH: QEQLVESGGGLVTPGGSLTLTCTVSTIDLSTFAISWVRQAPGKGLEWIGTINTDLTTYYVNWAKGRFTISKTSSTTVDLKMTGLTIEDTATYFCARKLFGNGNVWGPGTLVTVSS
VL: QVLTQTPSPVSASVGSTVTINCQASQSLHRNNYLSWFQQKPGQPPKQLIYQASTLASGVSSRFSGSGSGTQFTLTISDVVCDDAATYYCLGGVSGGPYPFGGGTEVVVKG
notes: Rabbit monoclonal, produced as recombinant antibody in HEK-293 cells; VH 110, VL 111) and calls clone MKP1A07310 'the inventive antibody'; also called MKP1A7310; MKP-1A-73-10
For B1, the binding result is on record as “binds”.

Values taken from patent US20190211104A1 (Merck KGaA, published 2019).
